Data taken from patent US20210155689A1 (SHANGHAI PHARMAEXPLORER, published 2021).
Positions count from the first letter of the chain named.

T1: human LAG-3 (full length, on the cell surface) (human, UniProt P18627 23-525)
T1 construct: Full-length human LAG-3 expressed on cells; also called HEK293-hLAG-3; HEK293 cells transfected with LAG-3 gene
T1 sequence: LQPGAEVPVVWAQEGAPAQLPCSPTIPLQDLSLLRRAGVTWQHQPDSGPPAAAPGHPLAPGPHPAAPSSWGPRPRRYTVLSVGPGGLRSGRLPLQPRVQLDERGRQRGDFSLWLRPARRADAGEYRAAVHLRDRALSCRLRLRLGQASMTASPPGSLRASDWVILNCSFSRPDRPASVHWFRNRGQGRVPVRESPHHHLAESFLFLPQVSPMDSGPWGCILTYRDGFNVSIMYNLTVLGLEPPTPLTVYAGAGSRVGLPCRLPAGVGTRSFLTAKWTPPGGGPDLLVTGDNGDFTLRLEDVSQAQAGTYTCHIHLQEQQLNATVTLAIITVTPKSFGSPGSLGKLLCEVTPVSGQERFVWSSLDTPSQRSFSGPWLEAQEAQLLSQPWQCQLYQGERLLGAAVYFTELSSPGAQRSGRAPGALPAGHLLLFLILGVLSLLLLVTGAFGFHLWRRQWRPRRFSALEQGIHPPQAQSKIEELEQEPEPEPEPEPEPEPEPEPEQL

T2: mouse LAG-3 protein with hFc tag (mLAG-3-hFc protein) (mouse; human, UniProt Q61790 24-442)
T2 construct: Made in HEK293 cells; also called mouse LAG-3 extracellular domain protein; not shown: human IgG Fc fragment (hFc) of the pCpC vector
T2 sequence: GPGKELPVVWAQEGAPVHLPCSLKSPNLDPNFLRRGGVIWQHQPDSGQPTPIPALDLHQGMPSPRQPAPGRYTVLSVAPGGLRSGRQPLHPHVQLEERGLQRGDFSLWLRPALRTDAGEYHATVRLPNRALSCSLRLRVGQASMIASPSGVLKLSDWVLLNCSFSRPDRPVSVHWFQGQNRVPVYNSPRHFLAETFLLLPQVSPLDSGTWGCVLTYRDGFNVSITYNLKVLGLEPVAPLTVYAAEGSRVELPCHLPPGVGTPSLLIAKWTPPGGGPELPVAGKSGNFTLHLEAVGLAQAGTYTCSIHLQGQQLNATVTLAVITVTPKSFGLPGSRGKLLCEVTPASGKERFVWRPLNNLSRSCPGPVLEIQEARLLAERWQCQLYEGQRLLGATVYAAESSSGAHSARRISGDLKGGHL

T3: hFc tagged monkey LAG-3 protein (cLAG-3-hFc protein) (monkey; human)
T3 construct: Made in HEK293 cells; also called monkey LAG-3 extracellular domain protein; not shown: human IgG Fc fragment (hFc) of the pCpC vector
T3 chain: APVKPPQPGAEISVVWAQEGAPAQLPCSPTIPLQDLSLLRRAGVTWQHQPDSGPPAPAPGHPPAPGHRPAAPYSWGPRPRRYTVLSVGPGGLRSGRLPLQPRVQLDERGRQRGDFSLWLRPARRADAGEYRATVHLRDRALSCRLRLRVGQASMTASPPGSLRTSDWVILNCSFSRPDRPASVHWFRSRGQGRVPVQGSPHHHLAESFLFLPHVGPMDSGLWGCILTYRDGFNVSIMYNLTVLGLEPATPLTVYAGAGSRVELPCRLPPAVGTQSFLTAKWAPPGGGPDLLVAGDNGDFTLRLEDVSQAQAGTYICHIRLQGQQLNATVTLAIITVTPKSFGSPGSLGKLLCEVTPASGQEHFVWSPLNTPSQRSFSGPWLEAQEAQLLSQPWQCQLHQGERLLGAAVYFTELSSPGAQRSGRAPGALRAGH

B1: 556F6B8 (mouse antibody purified from hybridoma) (antibody, V domains shown)
VH: RVQLKQSGPGLVQPSQSLSITCTVSGFSLIKYGVHWVRQSPGEGLEWLGVIWRGGITDYNAAFMSRLSITKDNSKSQVFFKMNSLQADDTAIYYCAKWDGPLAMDYWGQGTSVTVSS
VL: DIVMTQSHKFLSTSVGDRVSITCKASQDVGTTVAWYQQKPGQSPKLLIYWASTRHTGVPDRFTGSGSGTDFTLTISNVQSEDLADYFCQQYSSYPYTFGGGTKLEIK
notes: also called mAb123-556F6B8
B2: 556F6B8 (LAG-3 mouse-human chimeric antibody) (antibody, V domains shown)
VH: B1 VH
VL: B1 VL
notes: also called 556F8B8
B3: 405B8H3 (mouse antibody purified from hybridoma) (antibody, V domains shown)
VH: QVQLQQSGAELVRPGASVTLSCKASGYTFTDYEMHWVKQTPVHGLEWIGATDPETGNSAYNQKFKGKAIMTADKSSSTAYMELRSLTSEDSAVYYCISTGWNDWGQGTSLTVSS
VL: DIKMTQSPSSMYASLGERVTITCKASQDINSYLSWFQQKPGKSPKTLIYRADRLLDGVPSRFSGSGSGQDYSLTISSLEYGDMGIYYCLQYDEFPYTFGGGTKLEIK
notes: also called mAb103-405B8H3; 405B81-13
B4: 105F1E10 (LAG-3 mouse-human chimeric antibody) (antibody, V domains shown)
VH: EVQLQQSGPELVKPGASVKMSCRASGYTFTDFKMHWMKQSHGKSLEWIGYIAPNNGGTAYNQKFRGKATLTVNESSNTAYMELRSLTSEDSAVYYCVDWDDVDYWGQGTTLTVSS
VL: B3 VL with P40S, D52N, L55V, G81E, D92V, Y96L, G100A, I106L
B5: 105F1E10 (mouse antibody purified from hybridoma) (antibody, V domains shown)
VH: B4 VH
VL: B3 VL with P40S, D52N, L55V, G81E, D92V, Y96L, G100A, I106L
notes: also called mAb009-105F1E10
B6: 405B8H3 (LAG-3 mouse-human chimeric antibody) (antibody, V domains shown)
VH: B3 VH
VL: B3 VL
notes: also called mouse-human chimeric antibody 405B8H3
B7: 409D4E10 (LAG-3 mouse-human chimeric antibody) (antibody, V domains shown)
VH: B3 VH with Y27N, G56D, S58T, M70L, A72T, S98T, T99S
VL: B3 VL with D52N, G81E, D92N
B8: 409B11E12 (mouse antibody purified from hybridoma) (antibody, V domains shown)
VH: B3 VH with P41T, G56S, N57Y, M70L, S98A
VL: B3 VL with I2L, D52N, G81E
notes: also called mAb104-409B11E12
B9: 409D4E10 (mouse antibody purified from hybridoma) (antibody, V domains shown)
VH: B3 VH with Y27N, G56D, S58T, M70L, A72T, S98T, T99S
VL: B3 VL with D52N, G81E, D92N
notes: also called mAb112-409D4E10
B10: 409B11E12 (LAG-3 mouse-human chimeric antibody) (antibody, V domains shown)
VH: B3 VH with P41T, G56S, N57Y, M70L, S98A
VL: B3 VL with I2L, D52N, G81E

Key:
[1] = biological target: T1, human LAG-3 (full length, on the cell …); assay: FACS, HEK293-hLAG-3; 1.600 nM
Excerpt: The pIRES plasmid with the monkey-derived full-length gene was transfected into the HEK293 cell line to construct a HEK293 stable cell line containing monkey LAG-3 (herein referred to as HEK293-cLAG-3 stable cell line). The HEK293-hLAG-3 stable cell line and HEK293-cLAG-3 stable cell line were expanded in a T-75 cell culture flask to a 90% confluence. The medium was aspirated, and the cells were washed with HBSS (Hanks' Balanced Salt Solution) 1-2 times, then treated with a enzyme-free cell dissociation fluid (Versene solution: Life technology) and the cells were collected. The cells were washed with HBSS buffer for 1-2 times. After counted, the cells were diluted with HBSS to 1-2×10⁶ cells per ml, added with 1% goat serum blocking solution, incubated on ice for 20-30 minutes, and then washed with HBSS for 2 times by centrifugation. The collected cells were suspended in the FACS buffer (HBSS+1% BSA) to 2×10⁶ cells/ml, added as 100 microliters per well to a 96-well FACS reaction plate, added with 100 microliters per well of the antibody sample to be tested, incubated on ice for 1-2 hours. The plate was washed twice with the FACS buffer by centrifugation, added with 100 microliters of fluorescent (Alexa 488)-labeled secondary antibodies per well, and incubated on ice for 0.5-1.0 hours. The plate was washed 2-3 times with FACS buffer by centrifugation, added with 100 μl fixative solution (4% Paraformaldehyde) per well to suspend the cells. 5-10 minutes later, it was washed 1-2 times with FACS buffer by centrifugation. The cells were suspended with 100 microliters of FACS buffer, FACS (FACSCalibur, BD) was used for detection and the results were analyzed.

[2] = biological target: T2, mouse LAG-3 protein with hFc tag …; assay: ELISA, mLAG-3-hFc coated; 0.0067 nM
Procedure: (§1) The plate was sealed with plastic film and incubated overnight at 4° C. The plate was washed 2 times with the plate washing solution (PBS+0.01% Tween20) on the next day, and added with the blocking solution (PBS+0.01% Tween20+1% BSA) and blocked at room temperature for 1-2 hours. The blocking solution was poured out, and the plate was added with 50-100 μl of the antibody sample to be tested to each well, incubated at 37° C. for 1-2 hours, and washed 2-3 times with a plate washing solution (PBS+0.01% Tween20). HRP (horseradish peroxidase) labeled secondary antibody was added, and the plate was incubated at 37° C. for 1-2 hours, and washed 2-3 times with a plate washing solution (PBS+0.01% Tween20). 100 μl of TMB substrate was added to each well. After incubated at room temperature for 15-30 minutes, the plate was added with 100 μl of stop solution (1.0N HCl) to each well.

[3] = biological target: T3, hFc tagged monkey LAG-3 protein …; assay: ELISA, cLAG-3-hFc coated; 0.0067 nM
Procedure: as §1

Binder | Mean fluorescence intensity [1] [MFI] | OD450 [2] [OD450] | OD450 [3] [OD450]
B1 | 43.5 | – | –
B2 | – | 0.14 | 0.46
B3 | 99.4 | – | –
B4 | – | 0.09 | 0.26
B5 | 86.2 | – | –
B6 | – | 0.08 | 0.46
B7 | – | 0.09 | 0.64
B8 | 55.6 | – | –
B9 | 48 | – | –
B10 | – | 0.07 | 0.39
